# Measurements reported in IntAct's records for PubMed 31515488.
# B1: Proto-oncogene serine/threonine-protein kinase mos (Homo sapiens), P00540 (parent)
# chain: MPSPLALRPYLRSEFSPSVDARPCSSPSELPAKLLLGATLPRAPRLPRRLAWCSIDWEQVCLLQRLGAGGFGSVYKATYRGVPVAIKQVNKCTKNRLASRRSFWAELNVARLRHDNIVRVVAASTRTPAGSNSLGTIIMEFGGNVTLHQVIYGAAGHPEGDAGEPHCRTGGQLSLGKCLKYSLDVVNGLLFLHSQSIVHLDLKPANILISEQDVCKISDFGCSEKLEDLLCFQTPSYPLGGTYTHRAPELLKGEGVTPKADIYSFAITLWQMTTKQAPYSGERQHILYAVVAYDLRPSLSAAVFEDSLPGQRLGDVIQRCWRPSAAQRPSARLLLVDLTSLKAELG
# partner: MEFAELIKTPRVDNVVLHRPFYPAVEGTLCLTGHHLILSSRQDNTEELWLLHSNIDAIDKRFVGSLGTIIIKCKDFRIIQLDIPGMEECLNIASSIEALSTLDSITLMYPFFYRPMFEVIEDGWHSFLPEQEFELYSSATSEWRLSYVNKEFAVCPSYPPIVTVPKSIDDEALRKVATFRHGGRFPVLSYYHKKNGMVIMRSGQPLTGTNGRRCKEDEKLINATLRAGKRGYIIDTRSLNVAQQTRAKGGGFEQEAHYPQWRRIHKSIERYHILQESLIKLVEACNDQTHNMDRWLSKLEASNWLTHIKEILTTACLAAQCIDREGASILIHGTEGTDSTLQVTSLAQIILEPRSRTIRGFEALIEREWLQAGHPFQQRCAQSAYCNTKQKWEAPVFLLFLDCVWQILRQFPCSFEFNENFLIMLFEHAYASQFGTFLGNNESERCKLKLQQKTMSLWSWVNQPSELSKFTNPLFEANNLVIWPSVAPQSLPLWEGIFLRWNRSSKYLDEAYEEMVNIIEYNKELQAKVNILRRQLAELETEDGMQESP
# B2: Protein FAM9B (Homo sapiens), Q8IZU0 (parent)
# chain: MAAWGKKHAGKDPVRDECEERNRFTETREEDVTDEHGEREPFAETDEHTGANTKKPEDTAEDLTAKRKRMKMDKTCSKTKNKSKHALRKKQLKRQKRDYIHSLKLLNVLEEYITDEQKEEEEEEGEEEELIRIFQEQQKKWQQYRSVRRERLKEMKLLRDQFVKALEDFEDLCDRVFSDEDSELDN
# B3: Methylthioribulose-1-phosphate dehydratase (Homo sapiens), Q96GX9 (parent)
# chain: MSGCDAREGDCCSRRCGAQDKEHPRYLIPELCKQFYHLGWVTGTGGGISLKHGDEIYIAPSGVQKERIQPEDMFVCDINEKDISGPSPSKKLKKSQCTPLFMNAYTMRGAGAVIHTHSKAAVMATLLFPGREFKITHQEMIKGIKKCTSGGYYRYDDMLVVPIIENTPEEKDLKDRMAHAMNEYPDSCAVLVRRHGVYVWGETWEKAKTMCECYDYLFDIAVSMKKVGLDPSQLPVGENGIV
# partner: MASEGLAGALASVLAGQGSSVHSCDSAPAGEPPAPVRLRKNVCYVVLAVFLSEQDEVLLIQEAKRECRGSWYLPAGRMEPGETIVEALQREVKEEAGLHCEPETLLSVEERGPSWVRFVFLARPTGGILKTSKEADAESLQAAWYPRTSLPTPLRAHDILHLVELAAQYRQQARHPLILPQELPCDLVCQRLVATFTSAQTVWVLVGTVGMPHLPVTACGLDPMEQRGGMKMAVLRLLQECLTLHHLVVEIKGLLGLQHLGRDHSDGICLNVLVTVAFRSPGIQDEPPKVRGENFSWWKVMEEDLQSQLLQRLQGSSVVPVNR
# B4: Protein LDOC1 (Homo sapiens), O95751 (parent)
# chain: MVDELVLLLHALLMRHRALSIENSQLMEQLRLLVCERASLLRQVRPPSCPVPFPETFNGESSRLPEFIVQTASYMLVNENRFCNDAMKVAFLISLLTGEAEEWVVPYIEMDSPILGDYRAFLDEMKQCFGWDDDEDDDDEEEEDDY
# partner: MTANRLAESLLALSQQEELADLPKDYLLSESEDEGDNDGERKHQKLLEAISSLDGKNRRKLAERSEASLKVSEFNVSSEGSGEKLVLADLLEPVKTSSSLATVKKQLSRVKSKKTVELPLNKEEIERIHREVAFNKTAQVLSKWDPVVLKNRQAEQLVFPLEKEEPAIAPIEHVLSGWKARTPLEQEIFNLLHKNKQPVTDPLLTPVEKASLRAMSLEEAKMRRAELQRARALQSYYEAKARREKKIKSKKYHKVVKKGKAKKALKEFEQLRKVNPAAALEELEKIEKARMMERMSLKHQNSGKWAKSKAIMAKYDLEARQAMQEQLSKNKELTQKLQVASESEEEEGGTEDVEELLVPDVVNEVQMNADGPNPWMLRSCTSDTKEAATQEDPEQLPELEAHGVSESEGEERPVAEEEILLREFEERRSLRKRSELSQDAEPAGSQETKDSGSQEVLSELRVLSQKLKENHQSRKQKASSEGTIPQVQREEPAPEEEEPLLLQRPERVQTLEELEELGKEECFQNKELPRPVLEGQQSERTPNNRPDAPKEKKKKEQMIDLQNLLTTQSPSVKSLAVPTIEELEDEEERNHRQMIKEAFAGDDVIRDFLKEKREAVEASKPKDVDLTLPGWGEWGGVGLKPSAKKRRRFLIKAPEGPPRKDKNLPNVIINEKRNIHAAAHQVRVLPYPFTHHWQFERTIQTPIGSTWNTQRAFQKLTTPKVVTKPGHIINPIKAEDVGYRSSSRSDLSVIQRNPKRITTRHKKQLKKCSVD
# B5: LIM/homeobox protein Lhx4 (Homo sapiens), Q969G2 (parent)
# chain: MMQSATVPAEGAVKGLPEMLGVPMQQIPQCAGCNQHILDKFILKVLDRHWHSSCLKCADCQMQLADRCFSRAGSVYCKEDFFKRFGTKCTACQQGIPPTQVVRKAQDFVYHLHCFACIICNRQLATGDEFYLMEDGRLVCKEDYETAKQNDDSEAGAKRPRTTITAKQLETLKNAYKNSPKPARHVREQLSSETGLDMRVVQVWFQNRRAKEKRLKKDAGRHRWGQFYKSVKRSRGSSKQEKESSAEDCGVSDSELSFREDQILSELGHTNRIYGNVGDVTGGQLMNGSFSMDGTGQSYQDLRDGSPYGIPQSPSSISSLPSHAPLLNGLDYTVDSNLGIIAHAGQGVSQTLRAMAGGPTSDISTGSSVGYPDFPTSPGSWLDEMDHPPF
# partner: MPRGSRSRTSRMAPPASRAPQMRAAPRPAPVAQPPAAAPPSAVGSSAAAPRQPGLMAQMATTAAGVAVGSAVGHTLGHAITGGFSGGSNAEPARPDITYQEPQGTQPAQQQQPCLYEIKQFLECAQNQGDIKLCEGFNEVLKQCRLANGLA
# B6: Calcium-binding and coiled-coil domain-containing protein 2 (Homo sapiens), Q13137 (parent)
# chain: MEETIKDPPTSAVLLDHCHFSQVIFNSVEKFYIPGGDVTCHYTFTQHFIPRRKDWIGIFRVGWKTTREYYTFMWVTLPIDLNNKSAKQQEVQFKAYYLPKDDEYYQFCYVDEDGVVRGASIPFQFRPENEEDILVVTTQGEVEEIEQHNKELCKENQELKDSCISLQKQNSDMQAELQKKQEELETLQSINKKLELKVKEQKDYWETELLQLKEQNQKMSSENEKMGIRVDQLQAQLSTQEKEMEKLVQGDQDKTEQLEQLKKENDHLFLSLTEQRKDQKKLEQTVEQMKQNETTAMKKQQELMDENFDLSKRLSENEIICNALQRQKERLEGENDLLKRENSRLLSYMGLDFNSLPYQVPTSDEGGARQNPGLAYGNPYSGIQESSSPSPLSIKKCPICKADDICDHTLEQQQMQPLCFNCPICDKIFPATEKQIFEDHVFCHSL
# partner: B1 chain
# B7: Docking protein 3 (Homo sapiens), Q7L591 (parent)
# chain: MTRGARLRSDARAQLNQLSLDGGTGSGQKGKCEEFPSSLSSVSPGLEAAALLLAVTMDPLETPIKDGILYQQHVKFGKKCWRKVWALLYAGGPSGVARLESWEVRDGGLGAAGDRSAGPGRRGERRVIRLADCVSVLPADGESCPRDTGAFLLTTTERSHLLAAQHRQAWMGPICQLAFPGTGEASSGSTDAQSPKRGLVPMEENSIYSSWQEVGEFPVVVQRTEAATRCQLKGPALLVLGPDAIQLREAKGTQALYSWPYHFLRKFGSDKGVFSFEAGRRCHSGEGLFAFSTPCAPDLCRAVAGAIARQRERLPELTRPQPCPLPRATSLPSLDTPGELREMPPGPEPPTSRKMHLAEPGPQSLPLLLGPEPNDLASGLYASVCKRASGPPGNEHLYENLCVLEASPTLHGGEPEPHEGPGSRSPTTSPIYHNGQDLSWPGPANDSTLEAQYRRLLELDQVEGTGRPDPQAGFKAKLVTLLSRERRKGPAPCDRP
# Variants of: B1
# Conditions: with mtmr9_human MTMR9, Q96QG7
row,Variant,effect of a mutation on the interaction
1,I55V,with no effect

# Variants of: B2
# Conditions: with dapk2_human DAPK2, Q9UIK4
# dapk2_human DAPK2, Q9UIK4, sequence (Q9UIK4 whole entry, looked up): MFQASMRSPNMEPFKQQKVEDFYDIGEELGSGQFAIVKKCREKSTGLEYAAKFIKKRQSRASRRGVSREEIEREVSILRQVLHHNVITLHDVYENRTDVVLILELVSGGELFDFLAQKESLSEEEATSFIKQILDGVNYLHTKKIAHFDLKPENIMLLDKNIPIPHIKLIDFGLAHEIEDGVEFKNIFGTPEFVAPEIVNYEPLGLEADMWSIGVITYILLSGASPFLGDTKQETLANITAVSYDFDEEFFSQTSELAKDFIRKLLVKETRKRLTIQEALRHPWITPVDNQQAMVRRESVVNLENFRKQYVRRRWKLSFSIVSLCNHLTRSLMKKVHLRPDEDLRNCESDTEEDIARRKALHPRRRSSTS
row,Variant,effect of a mutation on the interaction
1,R23H,with no effect

# Variants of: B2
# Conditions: with tr61b_human TRMT61B
row,Variant,effect of a mutation on the interaction
1,R23H,with no effect

# Variants of: B2
# Conditions: with pin4_human PIN4, Q9Y237
# pin4_human PIN4, Q9Y237, sequence (Q9Y237 whole entry): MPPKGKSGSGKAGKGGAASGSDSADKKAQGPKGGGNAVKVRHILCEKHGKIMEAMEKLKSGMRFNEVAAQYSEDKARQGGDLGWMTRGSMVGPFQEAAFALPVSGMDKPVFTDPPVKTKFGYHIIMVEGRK
row,Variant,effect of a mutation on the interaction
1,R23H,with no effect

# Variants of: B2
# Conditions: with cc106_human CCDC106, Q9BWC9
# cc106_human CCDC106, Q9BWC9, sequence (Q9BWC9 whole entry): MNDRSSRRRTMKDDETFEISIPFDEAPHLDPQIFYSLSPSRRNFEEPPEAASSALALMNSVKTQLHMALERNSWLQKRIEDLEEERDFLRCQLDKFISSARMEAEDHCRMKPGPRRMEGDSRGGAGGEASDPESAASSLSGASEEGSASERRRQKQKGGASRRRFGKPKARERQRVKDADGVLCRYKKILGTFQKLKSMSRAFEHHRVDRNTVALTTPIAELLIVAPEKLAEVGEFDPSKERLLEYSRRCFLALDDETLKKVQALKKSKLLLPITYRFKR
row,Variant,effect of a mutation on the interaction
1,R23H,with no effect

# Variants of: B2
# Conditions: with eftu_human TUFM
row,Variant,effect of a mutation on the interaction
1,R23H,with no effect

# Variants of: B2
# Conditions: with xrcc4_human XRCC4, Q13426
# xrcc4_human XRCC4, Q13426, sequence (Q13426 whole entry): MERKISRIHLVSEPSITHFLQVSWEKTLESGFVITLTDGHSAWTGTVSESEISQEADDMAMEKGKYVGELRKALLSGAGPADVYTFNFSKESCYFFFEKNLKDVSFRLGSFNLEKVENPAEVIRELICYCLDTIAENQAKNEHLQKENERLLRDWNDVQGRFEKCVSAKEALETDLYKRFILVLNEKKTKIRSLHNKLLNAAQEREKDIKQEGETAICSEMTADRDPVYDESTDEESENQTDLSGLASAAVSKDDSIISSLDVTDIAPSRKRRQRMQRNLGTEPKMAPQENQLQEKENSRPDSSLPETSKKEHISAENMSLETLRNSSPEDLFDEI
row,Variant,effect of a mutation on the interaction
1,R23H,with no effect

# Variants of: B2
# Conditions: with daxx_human DAXX
row,Variant,effect of a mutation on the interaction
1,R23H,with no effect

# Variants of: B3
# Conditions: with nud18_human NUDT18, Q6ZVK8
row,Variant,effect of a mutation on the interaction
1,M181V,with no effect
2,G111A,with no effect

# Variants of: B4
# Conditions: with ut14a_human UTP14A
row,Variant,effect of a mutation on the interaction
1,L12H,with no effect

# Variants of: B5
# Conditions: with chch2_human CHCHD2, Q9Y6H1
row,Variant,effect of a mutation on the interaction
1,N328S,with no effect

# Variants of: B6
# Conditions: with mos_human MOS
row,Variant,effect of a mutation on the interaction
1,E222K,with no effect

# Variants of: B7
# Conditions: with traf1_human TRAF1, Q13077
# traf1_human TRAF1, Q13077, sequence (Q13077 whole entry): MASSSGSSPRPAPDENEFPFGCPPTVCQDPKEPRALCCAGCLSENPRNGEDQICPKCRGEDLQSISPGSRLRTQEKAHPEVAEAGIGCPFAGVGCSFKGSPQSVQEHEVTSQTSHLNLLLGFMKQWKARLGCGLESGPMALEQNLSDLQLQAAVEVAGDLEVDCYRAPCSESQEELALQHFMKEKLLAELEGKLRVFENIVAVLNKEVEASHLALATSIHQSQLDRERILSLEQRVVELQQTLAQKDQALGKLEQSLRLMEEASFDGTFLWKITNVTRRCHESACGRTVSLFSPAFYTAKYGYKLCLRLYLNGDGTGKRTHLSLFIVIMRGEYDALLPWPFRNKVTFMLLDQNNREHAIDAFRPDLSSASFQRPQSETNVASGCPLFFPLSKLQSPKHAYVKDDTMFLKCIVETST
row,Variant,effect of a mutation on the interaction
1,R229H,with no effect
